In patent publication US20210162028A1, “Methods for Inducing Intermittent Fasting and Modulating Autophagy” (The Hong Kong Polytechnic University, priority 2019, published 2021):
Entries after “also recorded” stand apart in the source; their conditions may differ.

Columns and labels:
Type in all cases: in vivo, mouse
[1] = Inverted grid hanging test
[2] = Blood pressure and heart rate by tail-cuff method; settings: DIO C57BL/6J male mice on HFD; about 600 U once a week; measured at 12 and 27 weeks
Source text: FIG. 9 illustrates that administration of N-ABD094-rhArg (SEQ ID NO: 50) to DIO male mice fed a HFD [HFD (rhArg) group] in FIG. 1 for 34 weeks could reduce heart mass, and lower blood pressure and heart rate to levels similar to that of the lean control mice [CD (vehicle) group]. (A) Heart mass. (B-E) Systolic and diastolic blood pressure (B, D) and heart rate (C, E) measured respectively at 12 weeks (B, C) and 27 weeks (D, E) after rhArg treatment by tail-cuff method using Noninvasive Blood Pressure Monitoring System (CODA Scientific). *P<0.05, one-way ANOVA followed by Bonferroni test. Data are expressed as mean±SEM.
(§1) Other than liver, obesity is also commonly associated with lipid accumulation in the kidney (renal steatosis) and heart (cardiac steatosis), causing lipotoxicity and dysfunction of these organs. Indeed, there was an increase in kidney and heart mass in DIO mice treated with vehicle (FIG. 8A and FIG. 9A).

[3] = Fat pad and organ mass at end of treatment; settings: DIO C57BL/6J male mice on HFD, about 600 U once a week, 34 weeks
Source text: Other than WAT and BAT, obesity is associated with excessive accumulation of lipids in the liver (hepatic steatosis). Indeed, the liver of vehicle-treated DIO mice was markedly enlarged (FIG. 7A), with a mass about 3 times (4.68 g) that of the lean control (1.73 g) (FIG. 7B).
as §1

[4] = Daily food intake / 7-day intermittent fasting cycle in mice
Source text: One of the most noticeable effects of intermittent fasting is reduction of bodyweight. […] Specifically, C57BL/6J, which is the most commonly used mouse strain for polygenic obesity model, was used in the study. It is well-reported that C57BL/6J male mice feeding on a high-fat diet will have prominent weight gain, become obese and develop hyperinsulinemia, hyperglycemia, impaired glucose tolerance and insulin resistance [Gallou-Kabani et al., 2007, Obesity 15(8):1996-2005]. Obesity was induced in C57BL/6J male mice via feeding ad libitum a high-fat diet containing 60 kcal % fat (HFD; Research Diets, D12492) for 12-14 weeks starting from 5-week old. These mice are referred as diet-induced obese (DIO) mice. DIO mice were stratified according to bodyweight into 2 groups. […] Both groups of mice continued to feed ad libitum on the HFD throughout the treatment period. One group of age-matched C57BL/6J male mice feeding ad libitum on an ordinary rodent chow diet (CD; LabDiet, 50IF/6F) and injected with vehicle served as the lean control [CD (vehicle) group]. Food intake and bodyweight of mice were measured daily. […] DIO mice were injected with rhArg on Day 0, which was Day 7 of the previous cycle. Similarly, Day 7 of the cycle shown in FIG. 1B was Day 0 of the next cycle. […] Bodyweight gain is one of the biomarkers related to aging.
C57BL/6J male mice were fed a high-fat diet from 5-week old for 12 weeks. They were then stratified into 3 groups according to their bodyweight and individually caged: (i) one group of mice received i.p. injection of 600 U N-ABD094-rhArg (SEQ ID NO: 50) once a week [HFD (rhArg) group] and was fed ad libitum the HFD for 5 weeks; (ii) one group of mice received i.p. injection of saline once a week, and was fed a predetermined amount of HFD on each day to artificially create a 7-day intermittent fasting cycle that mimics the pattern of food intake of mice administered once a week with rhArg [HFD (artificial IF) group)]; (iii) one group of mice was injected with saline once a week and was fed ad libitum the HFD [HFD (vehicle) group].

[5] = Insulin tolerance test (ITT)
Source text: In terms of reversing insulin resistance on pre-existing obese mice, insulin tolerance test (ITT) was employed (FIG. 59).
In terms of reversing insulin resistance on pre-existing obese mice, insulin tolerance test (ITT) was employed (FIG. 68A).

[6] = Whitening of brown adipose tissue (size, mass, H&E histology); settings: DIO C57BL/6J male mice on HFD; 600 U once a week, 12 weeks
Source text: FIG. 53 illustrates that administration of 600 U N-ABD094-rhArg (SEQ ID NO: 50) once a week to C57BL/6J male mice with pre-existing HFD-induced obesity [HFD (rhArg) group] for 12 weeks could effectively reverse whitening of brown adipose tissue (BAT), with lipids stored as a large single globule (characteristic feature of white adipocytes) changing to storage of lipids in multiple small droplets (characteristic feature of brown adipocytes), which was in line with the findings of induction of lipophagy observed by TEM. […] (B) The mass of iBAT of the 3 groups of mice was in line with the size shown in A. *P<0.05, one-way ANOVA followed by Bonferroni test. Data are expressed as mean±SEM, n=5 for each group.
After prolonged feeding on a HFD, there was a further increase in the size (FIG. 53A) and weight of the interscapular BAT (FIG. 53B) in vehicle-treated DIO mice [HFD (vehicle) group] in comparison to the lean control mice [CD (vehicle) group], which was correlated with the presence of massive amount of enlarged white-like unilobular cells (FIG. 53A). As observed under transmission electron microscopy, brown adipocyte in mice fed with HFD [HFD (vehicle) group] had massive enlarged lipid droplets (FIG. 52A). […] Many autophagosomes were actively forming and engulfing the lipid droplets (FIG. 52B). […]

[7] = DIO C57BL/6J male mice on HFD, about 600 U i.p. once a week, 34 weeks
[8] = DIO C57BL/6J male mice on HFD, about 600 U once a week, 49 weeks

B1: N-ABD094-rhArg: recombinant human arginase fused to albumin binding domain ABD094 (SEQ ID NO: 50); engineered long-acting arginine-depleting enzyme (protein)
chain: MHHHHHHDEAVDANSLAEAKEAANAELDSYGVSDFYKRLIDKAKTVEGVEALKDAILAALPSGSNNNNNNGSGGMSAKSRTIGIIGAPFSKGQPRGGVEEGPTVLRKAGLLEKLKEQECDVKDYGDLPFADIPNDSPFQIVKNPRSVGKASEQLAGKVAEVKKNGRISLVLGGDHSLAIGSISGHARVHPDLGVIWVDAHTDINTPLTTTSGNLHGQPVSFLLKELKGKIPDVPGFSWVTPCISAKDIVYIGLRDVDPGEHYILKTLGIKYFSMTEVDRLGIGKVMEETLSYLLGRKKRPIHLSFDVDGLDPSFTPATGTPVVGGLTYREGLYITEEIYKTGLLSGLDIMEVNPSLGKTPEEVTRTVNTAVAITLACFGLAREGNHKPIDYLNPPK
modifications: N-ABD094-rhArg, Synthesized in the Lab
notes: engineered long-acting arginine-depleting enzyme
[1]; DIO C57BL/6J male mice on HFD, weekly for 42 weeks
  Inverted grid hanging test: endurance (latency to fall): endurance even higher than mice in CD (vehicle) group
[1]; DIO ICR female mice on HFD, weekly, at 54 weeks
  Inverted grid hanging test: performance: significantly better than mice in HFD (vehicle) group
[2]
  Blood pressure and heart rate: levels similar to the age-matched lean control mice
[3]
  Kidney and heart mass: significantly less than that of the vehicle-treated DIO mice
  Mass of perirenal, inguinal and interscapular fat pad, relative to DIO mice treated with vehicle: less than 20%
[3]; vehicle DIO 4.68 g, lean control 1.73 g
  Liver mass: 1.39 g
[4]; 16-month old DIO C57BL/6J male mice on HFD, about 600 U once a week, 25 weeks
  Pattern of food intake (intermittent fasting cycles): induce repetitive 7-day intermittent fasting cycles
[4]; 17-month old C57BL/6J male mice on chow diet, about 600 U once a week, 21 weeks
  Pattern of food intake (intermittent fasting cycles): induce repetitive 7-day intermittent fasting cycles
[4]; 25-month old C57BL/6J male mice on chow diet, about 600 U once a week, 30 weeks
  Pattern of food intake (intermittent fasting cycles): prominent repetitive 7-day intermittent fasting cycles
[4]; DIO C57BL/6J male mice on HFD, 200 U rhArg i.p. once a week and/or 0.33 mg RA daily
  Pattern of food intake (intermittent fasting cycle): weak 7 days intermittent fasting cycle
[4]; DIO C57BL/6J male mice on HFD, 200 U rhArg i.p. once a week and/or 0.33 mg RA daily by gastric feeding, 10 weeks
  Total food intake per week, less than HFD (vehicle) group: slight, but insignificant decrease
[4]; DIO C57BL/6J male mice on HFD, 200 U rhArg i.p. once a week and/or 0.33 mg RA daily, listed as rhArg
  Pattern of food intake (intermittent fasting cycle): 7-day pattern of decreased food intake followed by an increase of food intake, but the magnitude was less than HFD (rhArg+RA) group
[4]; DIO C57BL/6J male mice on HFD, 300 U rhArg i.p. once a week and/or 300 mg/kg metformin daily
  Pattern of food intake (intermittent fasting cycle): weak intermittent fasting cycle
[4]; DIO C57BL/6J male mice on HFD, 300 U rhArg i.p. once a week and/or 300 mg/kg metformin daily by gastric feeding, 9 weeks
  Total food intake per week, less than HFD (vehicle) group: did not induce significant change in total food intake per week
[4]; DIO C57BL/6J male mice on HFD, 300 U rhArg i.p. once a week and/or 300 mg/kg metformin daily, listed as rhArg
  Pattern of food intake (intermittent fasting cycle): 7-day pattern of decreased food intake followed by an increase of food intake, but the magnitude was less than HFD (rhArg+Met) group
[4]; DIO C57BL/6J male mice on HFD, 600 U i.p. once a week, 5 weeks (artificial IF experiment)
  Total food intake per week, less than HFD (vehicle) group: 26%
[4]; DIO C57BL/6J male mice on HFD, 600 U i.p. once a week, 5 weeks (reduced daily food intake experiment)
  Reduction of total food intake per week: 30%
[4]; [7]
  Pattern of food intake (intermittent fasting cycles): repetitive cycles of intermittent fasting; also recorded: repetitive 7-day intermittent fasting cycles
  Total food intake per week, less than HFD (vehicle) group: about 30%
[4]; [8]
  Pattern of food intake (intermittent fasting cycles): repetitive 7-day intermittent fasting cycles
  Total food intake per week, less than HFD (vehicle) group: about 29%
[4]; DIO C57BL/6J male mice on HFD, about 600 U once a week, 49 weeks, listed as rhArg
  Pattern of food intake (intermittent fasting cycles): repetitive cycles of intermittent fasting
[4]; DIO ICR female mice on HFD, about 1200 U i.p. once a week, 56 weeks
  Pattern of food intake (intermittent fasting cycles): repeatedly occurring in ICR female mice throughout the 56 weeks of treatment period; also recorded: repetitive 7-day intermittent fasting cycles
[5]; 16-month old DIO C57BL/6J male mice on HFD, once a week, at 9 weeks
  Insulin sensitivity in ITT: markedly reverse pre-existing insulin resistance; also recorded: effectively reverse insulin resistance
[5]; DIO C57BL/6J male mice on HFD, 300 U/week rhArg and/or 300 mg/kg metformin, after 6 weeks
  Insulin sensitivity in ITT: marginal effect on improving insulin sensitivity but not reach statistical significant
[5]; DIO C57BL/6J male mice on HFD, 600 U once a week, after 2 weeks (reduced daily food intake experiment)
  Insulin sensitivity in ITT: marked increase in insulin sensitivity by 2 weeks after treatment
[5]; DIO C57BL/6J male mice on HFD, 600 U once a week, at 2 and 4 weeks (artificial IF experiment)
  Insulin sensitivity in ITT: reversal of insulin resistance and marked increase in insulin sensitivity by 2 weeks after treatment; also recorded: significant improvement in insulin sensitivity by 2 weeks
[5]; DIO C57BL/6J male mice on HFD, about 600 U once a week, at 16 and 32 weeks
  Insulin sensitivity in ITT: complete reversion of insulin resistance; also recorded: effectively reverse insulin resistance
[5]; DIO C57BL/6J male mice on HFD, rhArg weekly and/or 0.33 mg/day RA, after 6 weeks
  Insulin sensitivity in ITT: marginal effect on improving insulin sensitivity but not reach statistical significant
[5]; DIO ICR female mice on HFD, once a week, at 15 and 31 weeks
  Insulin sensitivity in ITT: better insulin sensitivity than age-matched mice in CD (vehicle) group
[6]
  White-like unilobular cells in BAT (histology): almost complete remission of white-like unilobular cells
